± gives the standard deviation of the averaged measurements.

Data set [1] has as its system Saccharomyces cerevisiae. Briefly: protein stability index of tFT-peptide fusion (C-terminal peptide) (PSI (0-1 scale)); higher = more stable (slower turnover). On the procedure:
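MPS profiling in S. cerevisiae of the tFT-X12 degron library: putative degron peptides plus stable controls, 12 aa, fused to the C-terminus of a sfGFP-mCherry timer. Cells are FACS-sorted into 8 mCherry/sfGFP bins and deep-sequenced. PSI runs from 0 (unstable) to 1 (stable). Backgrounds are wild type, das1Δ and doa10Δ at 30 °C, and wild type, das1Δ, cdc34-1 and cdc53-1 at 37 °C; 2-3 technical replicates each.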

Data set [2] concerns Saccharomyces cerevisiae. Described as above. Conditions: genetic background: wild type; temperature: 30 C.
Where [3] appears, read: genetic background: cdc34-1, temperature: 37 C.
[4] abbreviates: genetic background: cdc53-1, temperature: 37 C.
[5] abbreviates: genetic background: das1 deletion, temperature: 30 C.
Where [6] appears, read: genetic background: das1 deletion, temperature: 37 C.
Setting [7] is: genetic background: doa10 deletion, temperature: 30 C.
[8] abbreviates: genetic background: wild type, temperature: 30 C.
[9] abbreviates: genetic background: wild type, temperature: 37 C.
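Further: PSI is a weighted mean of sequencing reads over stability bins, variants kept only with over 10 reads, mCherry proximal and sfGFP distal, peptide attached via GGGS linker.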

YGETRGGGRGRW: the protein stability index came to 0.587 ± 0.049 with Saccharomyces cerevisiae [1] (setting [3]); 0.887 ± 0.038 in the data set on Saccharomyces cerevisiae [1] (setting [4]); 0.475 ± 0.034 in the data set with Saccharomyces cerevisiae [1] (setting [5]); 0.766 ± 0.16 in the data set with Saccharomyces cerevisiae [1] (setting [6]); 0.563 ± 0.13 with Saccharomyces cerevisiae [1] (setting [7]); 0.538 ± 0.12 in the data set on Saccharomyces cerevisiae [1] (setting [8]). Further, in the data set on Saccharomyces cerevisiae [1] (setting [9]), the protein stability index was found to be 0.65 ± 0.11.

YGFFCFLPVFRG yielded a protein stability index in the data set with Saccharomyces cerevisiae [2] of 0.661 ± 0.054.

Sequence YGKELRRCKWVF displayed a protein stability index in the data set with Saccharomyces cerevisiae [2] of 0.581 ± 0.0072.

For the sequence YGNSFLVRPPGD, the protein stability index in the data set on Saccharomyces cerevisiae [2] turned out to be 0.712 ± 0.05.

The sequence YGVRCSRINRSG came in with a protein stability index in the data set on Saccharomyces cerevisiae [2] of 0.678 ± 0.059.

Regarding YGVRGFKGYYGG, the protein stability index with Saccharomyces cerevisiae [2] amounted to 0.735 ± 0.0087.

In the data set with Saccharomyces cerevisiae [2], YHECWRTFTLCV yielded a protein stability index of 0.532 ± 0.007.

The sequence YHSSHTGEFLFL returned a protein stability index with Saccharomyces cerevisiae [2] of 0.658 ± 0.053.

In the case of YIIVSQRENRRQ, the protein stability index in the data set on Saccharomyces cerevisiae [2] came to 0.758 ± 0.095.

On to YINQWLNVKHGD, for which the protein stability index with Saccharomyces cerevisiae [2] came to 0.635 ± 0.058.

Turning to YISLQKGVMNEL, the protein stability index in the data set on Saccharomyces cerevisiae [2] stood at 0.728 ± 0.008.

Turning to YIVARMVRAVIP, the protein stability index in the data set on Saccharomyces cerevisiae [2] was found to be 0.741 ± 0.035.

Consider YKGNVRNPTLHA, for which, in the data set with Saccharomyces cerevisiae [2], the protein stability index is 0.655 ± 0.05.

In turn, YKKKKEEKNKKN returned a protein stability index in the data set on Saccharomyces cerevisiae [2] of 0.583 ± 0.046.

Sequence YKKKKKKKNNKK gave a protein stability index in the data set on Saccharomyces cerevisiae [2] of 0.662 ± 0.043.

Sequence YKNKKKKKNNKK registered a protein stability index in the data set on Saccharomyces cerevisiae [2] of 0.661 ± 0.019.

Sequence YLADPSPSIPIL returned a protein stability index in the data set on Saccharomyces cerevisiae [2] of 0.649 ± 0.02.

In the data set with Saccharomyces cerevisiae [2], YLDVWTGLSCQD showed a protein stability index of 0.683 ± 0.11.

In the case of YLGRDYYVVLWG, the protein stability index in the data set on Saccharomyces cerevisiae [2] came out at 0.7506 ± 0.0045.

In the data set with Saccharomyces cerevisiae [2], YLPRHPLPPFPV yielded a protein stability index of 0.681 ± 0.14.

In turn, YLPWFADLHPGV returned a protein stability index in the data set on Saccharomyces cerevisiae [2] of 0.737 ± 0.073.

YLSFDKSLLSQI: the protein stability index with Saccharomyces cerevisiae [2] is 0.662 ± 0.029.

In the data set with Saccharomyces cerevisiae [2], YLSGHLGCRVRV registered a protein stability index of 0.651 ± 0.067.

In turn, YLSVPVGPAMAL displayed a protein stability index in the data set with Saccharomyces cerevisiae [2] of 0.643 ± 0.1.

The sequence YMAGGQCDRLPG came in with a protein stability index in the data set on Saccharomyces cerevisiae [2] of 0.677 ± 0.055.

In the case of YNRQVDFECHKF, the protein stability index in the data set on Saccharomyces cerevisiae [2] came to 0.698 ± 0.044.

For the sequence YNVRNVSVHQLG, the protein stability index with Saccharomyces cerevisiae [2] turned out to be 0.644 ± 0.015.

In turn, YPALCSRFFAPS came in with a protein stability index in the data set on Saccharomyces cerevisiae [2] of 0.711 ± 0.039.

Consider YPGSCFLDTGIW, for which, in the data set with Saccharomyces cerevisiae [2], the protein stability index was determined as 0.6666 ± 0.0062.

With YPNENFALLTEH, the protein stability index in the data set on Saccharomyces cerevisiae [2] was determined as 0.653 ± 0.046.

Take YQGSFGLCRLML: the protein stability index in the data set with Saccharomyces cerevisiae [2] came out at 0.808 ± 0.034.

In turn, YRARTADRPRDQ yielded a protein stability index in the data set with Saccharomyces cerevisiae [2] of 0.729 ± 0.039.

In the case of YRIMRRKEKEER, in the data set with Saccharomyces cerevisiae [2], the protein stability index was found to be 0.669 ± 0.026.

YRLAPPPHPPPP displayed a protein stability index with Saccharomyces cerevisiae [2] of 0.576 ± 0.021.

As for YRLVASSHLIFF, the protein stability index in the data set with Saccharomyces cerevisiae [2] came out at 0.661 ± 0.027.

As to YRQAAIKNIKRK, the protein stability index in the data set with Saccharomyces cerevisiae [2] is 0.683 ± 0.014.

YRQIIPSFTLGL returned a protein stability index with Saccharomyces cerevisiae [2] of 0.715 ± 0.036.

In turn, YRSPRSSSGSSF showed a protein stability index with Saccharomyces cerevisiae [2] of 0.67 ± 0.041.

The sequence YSDNIHIEFEDC displayed a protein stability index with Saccharomyces cerevisiae [2] of 0.737 ± 0.068.

In the data set on Saccharomyces cerevisiae [2], YSGYRASLVFEI yielded a protein stability index of 0.648 ± 0.099.

On to YSIIYATGMRIL, for which the protein stability index in the data set on Saccharomyces cerevisiae [2] was 0.626 ± 0.07.

YSLETGIFVFHR: the protein stability index in the data set with Saccharomyces cerevisiae [2] was found to be 0.7027 ± 0.0068.

In the case of YSLPPAPQPLPP, the protein stability index with Saccharomyces cerevisiae [2] amounted to 0.772 ± 0.092.

Regarding YSPFGKRLLPPC, the protein stability index in the data set on Saccharomyces cerevisiae [2] amounted to 0.702 ± 0.057.

YSTFIPYSPCTA registered a protein stability index in the data set on Saccharomyces cerevisiae [2] of 0.644 ± 0.013.

In the data set on Saccharomyces cerevisiae [2], YSVDGTGVGLWV yielded a protein stability index of 0.717 ± 0.016.

Regarding YSWGVLSWLSFG, the protein stability index with Saccharomyces cerevisiae [2] stood at 0.648 ± 0.0074.

For YTPEVSVFFFRT, the protein stability index with Saccharomyces cerevisiae [2] was 0.6233 ± 0.0014.

As for YTSFGSSLIPTT, the protein stability index in the data set on Saccharomyces cerevisiae [2] is 0.652 ± 0.074.

In the data set on Saccharomyces cerevisiae [2], YTSPRSTGPSVG yielded a protein stability index of 0.732 ± 0.012.

Consider YTTFNLSQTLNG, for which, in the data set with Saccharomyces cerevisiae [2], the protein stability index turned out to be 0.674 ± 0.023.

With YTWVDKNDRTKR, the protein stability index in the data set on Saccharomyces cerevisiae [2] was determined as 0.736 ± 0.11.

YVFSPLSCWASV: the protein stability index in the data set with Saccharomyces cerevisiae [1] (setting [3]) was determined as 0.692 ± 0.056; in the data set on Saccharomyces cerevisiae [1] (setting [4]), 0.74 ± 0.0086; with Saccharomyces cerevisiae [1] (setting [5]), 0.608 ± 0.021; in the data set on Saccharomyces cerevisiae [1] (setting [6]), 0.7459 ± 0.0044; with Saccharomyces cerevisiae [1] (setting [7]), 0.603 ± 0.037; in the data set on Saccharomyces cerevisiae [1] (setting [8]), 0.596 ± 0.017. The protein stability index in the data set with Saccharomyces cerevisiae [1] (setting [9]) came out at 0.695 ± 0.019.

In the data set on Saccharomyces cerevisiae [2], YWEVYAGLSLWV registered a protein stability index of 0.63 ± 0.0048.

Turning to YWGGWCGGWEIG, the protein stability index with Saccharomyces cerevisiae [2] is 0.73 ± 0.034.

YYAFITERYRHN returned a protein stability index in the data set on Saccharomyces cerevisiae [2] of 0.6069 ± 0.0046.

YYCLRVRTINRR showed a protein stability index with Saccharomyces cerevisiae [2] of 0.703 ± 0.011.

Consider YYLCHIEEFLSS, for which, in the data set with Saccharomyces cerevisiae [2], the protein stability index turned out to be 0.622 ± 0.072.

In the data set on Saccharomyces cerevisiae [2], YYLPRPPRPTVL displayed a protein stability index of 0.623 ± 0.11.

In the data set with Saccharomyces cerevisiae [2], YYSTQTQATYRH came in with a protein stability index of 0.6773 ± 0.0025.

Source of the values: the supplement of paper PMC10724198.
